These results are taken from paper PMC11635287, “Molecular interactions of the chaperone CcmS and carboxysome shell protein CcmK1 that mediate β-carboxysome assembly” (Plant Physiology, 2024).

B2: CcmK1-His (His-tagged CcmK1 from Nostoc sp. PCC 7120) (natural protein, UniProt A0ACD6B949 1-114, looked up)
chain: MSIAVGMVETLGFPAVVEAADAMVKAARVTLVGYEKIGSGRVTVIVRGDVSEVQASVAAGVESVKRVNGGQVLSTHIIARPHENLEYVLPIRYTEDVEQFRENVNAIRPFGRRP
notes: CcmK1, carboxysome shell protein, Nostoc sp; GenBank BAB72824.1; synthesized gene in pET-22b(+); The His tag is named for the pull-down only; also called CcmK1 hexamer; source: E. coli BL21(DE3), purified (Ni2+-NTA, gel filtration)

Data set [1] concerns the target CcmK1-ΔC12, His-tagged (C-terminus-truncated CcmK1 from Nostoc sp. PCC 7120) (Nostoc sp. PCC 7120). The experiment in a line: SEC; gel filtration chromatography of CcmK1 or CcmK1-ΔC12 alone (Supplementary Figs. S4 and S5).
In data set [2] the target is CcmS-His (His-tagged CcmS from Nostoc sp. PCC 7120) (Nostoc sp. PCC 7120). As to the kind of experiment: MST; His-tagged CcmS labelled with dye as target at 0.25 μM; non-labelled ligand in 2-fold steps, 16 capillaries; Monolith NT.115, 25 °C, 60% excitation power.
The target in data set [3] is T1, CcmS-His (His-tagged CcmS from Nostoc sp. PCC 7120) (Nostoc sp. PCC 7120, UniProt A0ACD6B954 1-142, dye label on the His tag in the MST assays).
T1 chain: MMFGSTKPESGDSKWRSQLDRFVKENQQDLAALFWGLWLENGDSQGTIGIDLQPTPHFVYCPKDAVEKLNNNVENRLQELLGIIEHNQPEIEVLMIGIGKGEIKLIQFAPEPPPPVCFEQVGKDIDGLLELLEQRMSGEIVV
The experiment in a line: MST.

Data set [4] deals with the molecule itself. As to the kind of experiment: crystal structure; CcmS mixed with CcmK1-C15 at a molar ratio of 1:10, space group P41212, 1.67 Å; 0.2 M lithium sulfate, 0.1 M Tris pH 8.5, 1.26 M ammonium sulfate, 18 °C.
Data set [5] deals with B2. As to the kind of experiment: SEC + native gel or EMSA; molecular mass of the CcmS/CcmK1 complex by gel filtration chromatography and Native-PAGE (Supplementary Figs. S3B and S5A). The following applies: both partners purified.
Data set [6] deals with T2, CcmS-His (His-tagged CcmS from Nostoc sp. PCC 7120) (Nostoc sp. PCC 7120, UniProt A0ACD6B954 1-142, dye label on the His tag in the MST assays).
T2 construct: CcmS, Nostoc sp; ccmS encodes a protein of 142 amino acids; GenBank BAB73249.1; synthesized gene in pET-22b(+); also called CcmS dimer; source: E. coli BL21(DE3), purified (Ni2+-NTA, gel filtration)
The experiment in a line: MST; His-tagged CcmS labelled with dye as target at 0.25 μM; non-labelled ligand in 2-fold steps, 16 capillaries; Monolith NT.115, 25 °C, 60% excitation power. The following applies: both partners purified.

Data set [7] deals with the molecule itself. As to the kind of experiment: SEC; gel filtration chromatography of CcmK1 or CcmK1-ΔC12 alone (Supplementary Figs. S4 and S5).

The molecule “CcmK1-ΔC12, His-tagged (C-terminus-truncated CcmK1 from Nostoc sp. PCC 7120) (domain or fragment)” returned a stoichiometry N in data set [1] of 6. With “CcmK1-C12 (12-amino acid C-terminal peptide of CcmK1)”, the Kd in data set [2] came to 41.5 µM.

In data set [3], FRENVNAIRPFGARP [CcmK1-C15 R112A peptide] registered a dissociation constant Kd of 101 µM.

B1: CcmS from Nostoc sp. PCC 7120 (as used for crystallization, Native-PAGE and gel filtration; tag not told) (natural protein, UniProt A0ACD6B954 1-142, looked up)
chain: MMFGSTKPESGDSKWRSQLDRFVKENQQDLAALFWGLWLENGDSQGTIGIDLQPTPHFVYCPKDAVEKLNNNVENRLQELLGIIEHNQPEIEVLMIGIGKGEIKLIQFAPEPPPPVCFEQVGKDIDGLLELLEQRMSGEIVV
notes: CcmS, Nostoc sp; ccmS encodes a protein of 142 amino acids; GenBank BAB73249.1; crystal structures PDB 8ZLH (alone) and 8ZLZ (with CcmK1-C15); also called CcmS dimer; purified CcmS; source: E. coli BL21(DE3), purified (Ni2+-NTA or Strep-tag XT, gel filtration)
Take B1: the “stoichiometry N” value in data set [4] was 2; in data set [5], 2 CcmS dimers per CcmK1 hexamer. With B2, the dissociation constant Kd in data set [6] came to 34.5 µM. Also, in data set [7], the “stoichiometry N” value came out at 6.
